Measured values taken from patent US10894811B2, “Peptide inhibitors of calcium channels” (The University of North Carolina at Chapel Hill, priority 2016, dated 2021).
Entries after “also recorded” stand apart in the source; their conditions may differ.

Experiments:
tracheal rings = experiment: Myography of murine tracheal rings (ex vivo contraction); design: species or system mouse; settings: pretreatment with recombinant SPLUNC1 protein for 1 h prior to agonist addition
Procedure: Myography of Murine Tracheal Rings: Tracheas were excised from 8-week old SPLUNC1 WT and KO mice. After removing excessive connecting tissue, the trachea was cut into ˜4-mm rings, mounted on a DMT 620M myography apparatus and allowed to rest in modified Ringer's solution (119 mM NaCl, 4.7 mM KCl, 1.17 mM MgSO4, 1.18 mM KH2PO4, 2.5 mM CaCl2, 25 mM NaHCO3, 0.027 mM EDTA, 5.5 mM glucose) with continuous oxygenation (95% O2/5% CO2) at 37° C. for 20 min with no applied tension. Optimal passive tension (1 mN) was then applied to the rings. The baseline force was then recorded after stable tension was achieved. The induced contractile force of each ring was assessed by measuring contraction stimulated by 60 mM KCl or […] Ach (unless indicated otherwise), respectively.

Human ASMCs = experiment: Cell contraction assay (collagen gel); type: cell-based; settings: pre-incubation with recombinant SPLUNC1; with or without Ach; 60 min
Procedure: Cell contraction assay: The cell contraction assay was performed using a standard commercially available kit (Cell Biolabs). Human ASMCs were harvested and re-suspended in DMEM, two parts of cells were mixed with eight parts of collagen gel lattice mixture and plated for 1 h at 37° C. After the gel solidified, 1 ml of medium was added and incubated for 48 h. Next the gels were released from the sides of wells, and the images were taken using a ChemiDoc™ MP imager (BioRad) at 0 and 1 h after adding indicated reagents. The changes of collagen gel surface areas were analyzed using ImageJ software and normalized to areas of gels at 0 time point.

hASMCs = experiment: Calcium imaging using fura-2 (thapsigargin-induced Ca2+ signaling); type: cell-based, human
Procedure: Calcium imaging: Calcium imaging using fura-2 was adapted from a previous published protocol with minor modifications (Sheridan et al., J. Biol. Chem. 288:33509 (2013)). Briefly, hASMCs were loaded with 2 μM fura-2 AM (Invitrogen) and serosal media from HBEC cultures or recombinant SPLUNC1 at 37° C. for 1 h. Cultures were washed with a standard Ringer's solution (101 mM NaCl, 12 mM NaHCO3, 1.2 mM MgCl2, 1.2 mM CaCl2, […], 24 mM HEPES, 10 mM glucose, pH 7.4) or with Ca^2+-free Ringer's solution as indicated. Cultures were then placed in the Ringer's solution, and images were collected with a 40×1.4 NA oil objective on a Nikon Ti-S inverted microscope. Fura-2 fluorescence was acquired alternately at 340 and 380 nm (emission >450 nm) using LUDL filter wheels, obtained with an Orca FLASH 4.0 CMOS camera (Hammamatsu), and controlled with HCImageLive software. Cell bodies were identified as individual regions of interest (ROIs). Background subtraction was performed using a region without the cell. Signals were converted to relative changes (F/F0) where F0 was the ratio of the average fluorescent intensity (340/380) of ROIs at 0 time point. A total of 20 cells/coverslip were recorded. ΔF/F0 represents average peak fluorescent intensity changes of three independent experiments.

ASMC plasma membranes = experiment: SPLUNC1 binding to ASMCs after Orai1 shRNA (surface biotinylation, fluorescent SPLUNC1 binding assay); design: species or system human; settings: Orai1 shRNA knockdown vs scrambled control, 72 h post transfection
Procedure: Short hairpin RNA (shRNA) plasmid against Orai1 and scrambled control shRNA plasmid were purchased from Sigma Aldrich and published previously (Sheridan et al., J. Biol. Chem. 288:33509 (2013)). Transfections of all plasmid DNA and shRNA were performed using Lipofectamine 2000 reagent (Life Technologies) according to the manufacturer's instructions.
Fluorescent SPLUNC1 binding assay: Human ASMCs were transfected with scrambled control shRNA and Orai1 shRNA respectively. 72 h post transfection, cells were treated with or without SPLUNC1-DyLight 633 for 1 h, then washed for 5 times with ice-cold Ringer's solution. ASMC-bounded SPLUNC1-Dylight 633 was detected by fluorescent plate reader (Tecan). Cells were also stained with calcein AM (Life Technologies) as cell number control. Relative fluorescent intensity was calculated by normalizing fluorescent intensity at 658 nm to 526 nm.
Surface biotinylation: hASMCs were treated with or without SPLUNC1 for 4 h. Cells were then washed with prechilled PBS^++ (phosphate buffered saline supplemented with 1 mM CaCl2 and 1 mM MgCl2), and then labeled with 0.5 mg/ml sulfo-NHS-biotin (Thermo) in borate buffer (85 mM NaCl, 4 mM KCl, 15 mM Na2B4O7, pH 9.0) while tumbling gently for 30 min on ice. hASMCs were incubated in PBS^++ buffer supplemented with 10% FBS for 20 min at 4° C. to quench free biotin. […]

Orai1 = Orai1 (Homo sapiens, UniProt Q96D31); experiment: Fluorescent (confocal) microscopy of Orai1 localization; type: cell-based; design: expressed in transfected cells; settings: ASMC treated with SPLUNC1
Procedure: Fluorescent microscopy: Human ASMs were grown on 25-mm glass coverslips for fluorescent imaging. Cells were transfected with the indicated fluorescent-labeled proteins. At 24 h post-transfection, cells were incubated with or without SPLUNC1 for 4 h, followed by methanol fixation and DAPI (1 μg/ml) staining for nucleus. For live cell imaging, cells were grown on 35-mm glass-bottom dishes (In Vivo Scientific) and transfected with the YFP-Orai1. At 24 h post-transfection, cells were incubated with SPLUNC1 and images were taken at indicated time point. All images were taken with a Leica TCS SP8 63× oil lens using the Leica Application Suite X software (Leica).

Sequence of Orai1 (Q96D31 whole entry): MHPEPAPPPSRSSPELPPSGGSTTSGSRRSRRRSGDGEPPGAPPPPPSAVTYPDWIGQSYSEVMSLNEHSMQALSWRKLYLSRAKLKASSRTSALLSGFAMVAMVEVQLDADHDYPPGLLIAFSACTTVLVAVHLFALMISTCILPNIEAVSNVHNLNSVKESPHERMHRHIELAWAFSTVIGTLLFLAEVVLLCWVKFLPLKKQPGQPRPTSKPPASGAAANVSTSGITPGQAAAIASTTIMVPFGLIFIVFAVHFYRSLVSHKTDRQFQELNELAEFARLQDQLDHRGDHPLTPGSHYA

B1: SPLUNC1: Short palate, lung and nasal epithelium clone 1, recombinant full length protein (protein, listed as Homo sapiens)
chain: MFQTGGLIVFYGLLAQTMAQFGGLPVPLDQTLPLNVNPALPLSPTGLAGSLTNALSNGLLSGGLLGILENLPLLDILKPGGGTSGGLLGGLLGKVTSVIPGLNNIIDIKVTDPQLLELGLVQSPDGHRLYVTIPLGIKLQVNTPLVGASLLRLAVKLDITAEILAVRDKQERIHLVLGDCTHSPGSLQISLLDGLGPLPIQGLLDSLTGILNKVLPELVQGNVCPLVNEVLRGLDITLVHDIVNMLIHGLQFVIKV
- contraction (contractile force) of tracheal rings (tracheal rings): suppressed contraction
- ASMC contraction in collagen matrix (decrease in gel surface area) (Human ASMCs): significantly reduced; also recorded: decreases airway smooth muscle (ASM) contractility
- ability of SPLUNC1 to inhibit Ca2+ signaling (hASMCs; ASMC with Orai1 knocked down by shRNA, TG): lost
- ability to suppress Ca2+ signaling, SPLUNC1 mutants/peptides (hASMCs; ASMCs pre-incubated with truncated SPLUNC1 peptides (FIG. 4H)): Inhibition was not different
- SR Ca2+ release (hASMCs; TG without extracellular Ca2+ (EGTA), pre-treatment with SPLUNC1): no effect
- thapsigargin (TG)-induced Ca2+ flux (peak fura-2 ratio change) (hASMCs; human ASMCs, co-incubated 1 h): significantly reduced; also recorded: inhibits TG induced cytosolic Ca^2+ increases in a dose-dependent manner; also recorded: suppresses cytosolic Ca^2+ elevation in the presence of TG
- SOCE (store operated Ca2+ influx) (hASMCs; reintroduction of extracellular Ca2+ after TG, pre-treatment with SPLUNC1): significantly suppressed; also recorded: blocks store operated Ca^2+ influx in ASMCs
- SPLUNC1 binding to ASMC plasma membranes (ASMC plasma membranes): decreased; also recorded: decreases SPLUNC1 binding to the ASMC membrane; also recorded: decreases fluorescent SPLUNC1 binding to ASMCs
- cytosolic Orai1 / Orai1 internalization (Orai1): increased; also recorded: Orai1 is internalized
